# System: RuBpy-labeled Sheep anti-mouse IgG coated beads
# Assay: ECL-based assay for the measurement of protease activity
# Format: biochemical
# Details: in words, 30 minutes at 37° C., solution phase, FIG. 9
# Protocol: This assay system consists of a ruthenylated (RuBpy-labeled) substrate immobilized on paramagnetic beads and the enzyme of interest. The RuBpy label is released by the action of the enzyme. The ECL of the free label is measured using the ORIGEN Analyzer (IGEN International).
# Dynabead® M280 Sheep anti-mouse IgG coated beads (IGEN International, Inc.) were RuBpy-labeled at a 200:1 challenge ratio of RuBpy to IgG to introduce RuBpy groups on the immobilized IgG molecules. The labeling was carried out using a derivative of RuBpy linked to an NHS ester (TAG-NHS, IGEN International) according to established procedures. The beads were then washed three times, thirty minutes each, at 4° C. with equal volumes of PBS, pH 7.8, and once overnight at 4° C. Replicate test samples were prepared with 100 μl of solutions containing known amounts of Proteinase K (Sigma) in phosphate buffered saline, pH 7.8 and 25 μl of 1.2 mg/ml TAG labeled Sheep anti-mouse beads. […] The reaction was quenched by the addition of 1 mL of a solution containing tripropylamine (ORIGEN Assay Buffer, IGEN International, Inc.) and the protease activity was quantitated on the ORIGEN 1.5 Analyzer with the solution phase default settings (i.e., the beads are kept in suspension so as to preferentially measure ECL at the electrode from RuBpy groups in solution) except for high vortex speed.
molecule,measurement,value
"Proteinase K: Proteinase K (Sigma), protease measured in the ECL assay (protein, UniProt P06873 106-384, looked up) Proteinase K: AAQTNAPWGLARISSTSPGTSTYYYDESAGQGSCVYVIDTGIEASHPEFEGRAQMVKTYYYSSRDGNGHGTHCAGTVGSRTYGVAKKTQLFGVKVLDDNGSGQYSTIIAGMDFVASDKNNRNCPKGVVASLSLGGGYSSSVNSAAARLQSSGVMVAVAAGNNNADARNYSPASEPSVCTVGASDRYDRRSSFSNYGSVLDIFGPGTSILSTWIGGSTRSISGTSMATPHVAGLAAYLMTLGKTTAASACRYIADTANKGDLSNIPFGTVNLLAYNNYQA",ECL signal as a function of the concentration of enzyme,directly related to the concentration of enzyme

# Source: patent US7439017B2, “Assays for measuring nucleic acid binding proteins and enzyme activities” (BioVeris Corporation, priority 1998, dated 2008)
